Test [1] concerns the target T1, recombinant human ErbB2/Fc chimera (human, UniProt P04626 23-652).
T1 construct: bought from R&D Systems; also called rhErbB2-Fc; rhErb2-Fc; Fc part of the bought chimera not given; not described
Nature of the test: SPR (Biacore T100), Nanobody over immobilised rhErbB2-Fc. Background: SPR reads the build-up and loss of mass on a sensor chip optically.

Test [2] addresses T2, Epidermal Growth Factor Receptor 2 (HER2) (human, UniProt P04626 23-1255).
T2 construct: whole, on cells; the cell line is named under assay; also called ErbB-2; ERBB2
Nature of the test: FMAT competition on SKBR3 cells, periplasmic extract.

Test [3] has as its target T1, recombinant human ErbB2/Fc chimera. Kind of test: SPR (Biacore 3000), periplasmic extract over immobilised rhErbB2-Fc.

Some results are limits rather than exact numbers.

B1: DUMMY-35GS-47D5 (bispecific antibody)
chain: EVQLVESGGGLVQAGGSLRLSCAASGRTFRSYPMGWFRQAPGKEREFVASITGSGGSTYYADSVKGRFTISRDNAKNTVYLQMNSLRPEDTAVYSCAAYIRPDTYLSRDYRKYDYWGQGTQVTVSSGGGGSGGGGSGGGGSGGGGSGGGGSGGGGSGGGGSEVQLVESGGGLVQPGGSLRLSCAASGSIFGFNDMAWYRQAPGKQRELVALISRVGVTSSADSVKGRFTISRVNAKDTVYLQMNSLKPEDTAVYYCYMDQRLDGSTLAYWGQGTQVTVSS
notes: control: dummy Nanobody fused N-terminally to 47D5; C-term myc-His6 tag; also called Dummy-47D5
In general, Kd refers to a measure of binding affinity in units of concentration. In general, koff refers to the rate constant with which the complex falls apart. In general, kon refers to the second-order rate constant of association. For B1, in test [1], the Kd was found to be 3.21 nM, the koff came out at 0.000869 s⁻¹ and the kon worked out at 271000 M⁻¹ s⁻¹.

B2: 2F5 (VHH)
VHH: EVQLVESGGSLVPPGGSLRLSCAASGFTFDDYAMSWVRQAPGKGLEWVSSINWSGTHTDYTDSVKGRFTISRNNANNTLYLQMNSLKSEDTAVYYCAKNWGDAGTTWFEKSGSAGQGTQVTVSS
notes: C-term myc-His6 tag
Consider B2, for which the “% blocking of Herceptin binding” value in test [2] was over 90%. Also, the dissociation rate constant (koff) in test [3] worked out at 0.00157 s⁻¹.

B3: 2C2 (VHH)
VHH: EVQLVESGGGLVQPGGSLRLSCVASGFSLDDYAMTWVRQAPGKGLEWVSSINWSGTHTDYADSVKGRFTISRDNARNTLFLQMNSLTPEDTAIYYCNQGWKILPTDRRGHGTQVTVSS
notes: C-term myc-His6 tag
As for B3, in test [2], the “% blocking of Herceptin binding” value was over 90%. Moreover, the koff in test [3] worked out at 0.00412 s⁻¹.

B4: 2F4 (VHH)
VHH: EVQLVESGGGLVQPGGSLRLSCVASGFSLDDYGMTWVRQAPGKGLEWVSSINWSGTHTDYADSVKGRFTISRDNAKNTLFLQMNSLRSEDTAVYYCNQGWKIVPTDRRGHGTQVTVSS
notes: C-term myc-His6 tag
In the case of B4, the “% blocking of Herceptin binding” value in test [2] is over 90%. Further, in test [3], the off-rate (koff) worked out at 0.00107 s⁻¹.

B5: 2G2 (VHH)
VHH: EVQLVESGGGLVQPGGSLRLSCVASGFSLDDYGMTWVRQAPGKGLEWVSSINWSGTHTDYTDPVKGRFTISRDNAKNTLFLQMNNLTPEDTAVYYCNRGWKIVPTDLGGHGTQVTVSS
notes: C-term myc-His6 tag
Consider B5, for which, in test [2], the “% blocking of Herceptin binding” value is over 90%. In test [3], the off-rate (koff) is 0.0013 s⁻¹.

B6: 2B3 (VHH)
VHH: EVQLVESGGGLVQPGGSLRLSCVASGFSLDDYGMTWVRQAPGKGLEWVSSINWSGTHTDCADSVKGRFTISRDNAKNTLFLQMNSLTPEDTAVYYCNQGWKIIPTDRRGHGTQVTVSS
notes: C-term myc-His6 tag
For the molecule B6, in test [2], the “% blocking of Herceptin binding” value is over 90%. The koff in test [3] is 0.00125 s⁻¹.

B7: 2F1 (VHH)
VHH: EVQLVESGGGLVQPGGSLRLSCVASGFSLDDYGMTWVRQAPGKELEWISSINWSGTHTDYADSVKGRFTISRDNAKNTLFLQMNSLTPEDTAVYYCNQGWKIVPMDRRGHGTQVTVSS
notes: C-term myc-His6 tag
Consider B7, for which the “% blocking of Herceptin binding” value in test [2] is over 90%. The koff in test [3] is 0.00177 s⁻¹.

B8: 2D5 (VHH)
VHH: EVQLVESGGGLVQPGGSLRLSCVASGFSLDDYGMTWVRQAPGKGLEWVSSINWSGTHTDYADSVKGRFTISRDNAKNTLFLQMNSLRSEDTAVYYCNQGWKIVPTDRGGHGTQVTVSS
notes: C-term myc-His6 tag
Regarding B8, the “% blocking of Herceptin binding” value in test [2] was over 90%. Also, the off-rate constant (koff) in test [3] is 0.0012 s⁻¹.

B9: 2H1 (VHH)
VHH: EVQLVESGGGLVQPGGSLRLSCVASGFSLDDYGMTWVRQAPGKGLEWVSSINWSGTHTDYADSVRGRFVISRDNAKNTLFLQMNSLSPEDTAVYYCNQGWKIIPTDRRGHGTQVTVSS
notes: C-term myc-His6 tag
Consider B9, for which the “% blocking of Herceptin binding” value in test [2] is over 90%. Further, in test [3], the off-rate constant (koff) came to 0.00109 s⁻¹.

B10: 2D1 (VHH)
VHH: EVQLVESGGGLVQPGGSLRLSCVASGFSLDDYGMTWVRQAPGKGLEWVSSINWSGTHTDYADSVKGRFTISRDNAKNTLFLQMNSLSPEDTAVYYCNRGWKILPTNRGSHGTQVTVSS
notes: C-term myc-His6 tag
As to B10, the “% blocking of Herceptin binding” value in test [2] is over 90%. The off-rate constant (koff) in test [3] was found to be 0.00127 s⁻¹.

(Values after patent US20150232562A1 (Ablynx, published 2015).)
